Assay results as given in patent publication US6613506B1, “Compositions and methods for inhibiting human immunodeficiency virus infection by down-regulating human cellular genes” (Subsidiary No. 3, Inc., priority 2000, dated 2003).

B1: CF-317: GSE, SEQ ID NO:17, antisense; human phosphatidylinositol 3-kinase gene (nucleic acid, listed as Homo sapiens)
antisense: CCAAGCTTCCTATCTTAAGCTGGGCGTTGATATCCAGGTCACAACTATAGATGTAGTGAAACTTCTCTGCTTCCCCCATCGCACCGTCTGCAAAGGTACCACC
B2: CF-286: GSE, SEQ ID NO:18, sense; human elongation factor-1α gene (nucleic acid, listed as Homo sapiens)
sense: CAGTTGGGGTGGGTGTCATCAAAGCAGTGGACAAGAAGGCTGCTGGAGCTGGCAAGGTCACCAAGTCTGCCCAGAAAGCTCAGAAGGCTAAATGAATATTATCCCTAATACCTGCCACCCCACTCTTAATCAGTGGTGGAAGAAC
B3: CF-273: GSE, SEQ ID NO:11, sense; eukaryotic translation initiation factor 3 gene (nucleic acid, listed as Homo sapiens)
sense: GCTCGTCAGTGTCCACCCCTCCTCGCAACTCCAGGCGCTCCTTTTTCTGCTCCATATAGAGCTCCTGGGCCATTTTCCGGTACTTCCGGAAATCTTCCATCATGGTGCGCCTTC
B4: CF-266: GSE, SEQ ID NO:15, antisense; human eIF4B gene (nucleic acid, listed as Homo sapiens)
antisense: GCCGTTCTTCTACTTCTCTTTCTCAAGCAGCAGTGTCAACAGGCTTTGCCCCTCCAAAGATAGAAGCAGCTCGAGTGGACTGGGAGGTACTAGCAGA
B5: CF-313: GSE, SEQ ID NO:13, sense; human protein tyrosine phosphatase gene (nucleic acid, listed as Homo sapiens)
sense: CATTTTGTTACATAAGGATGACTTTTTTATACAATGGAATAAATTATGGCATTTCTATTGAAATTTCAACGCTTTTGTTTCTTTGGCAACCACAC
B6: CF-545: GSE, SEQ ID NO:49, antisense; U-snRNP associated cyclophilin gene (nucleic acid, listed as Homo sapiens)
antisense: CTTCTTGGTGGTGTTCTTGAGTAAGATAATCTGGACTGGCCCCCGTCTTTGCTTCCCTGCCTGCTGCTGCCCCATTTGATCAAGAGACCATGGAAGTGTCAGAGATTCAGAATCCAAGATTGTCTTTAAGTTTTCAACTGTAAATAAAGTTTTTTTGTATGCGTAAAAAAAGCTCGTGCCT
B7: CF-280: GSE, SEQ ID NO:20; portion of an unknown human cellular gene (nucleic acid, listed as Homo sapiens)
DNA: GTGCCGTATGAATATACAAAATAATGGCATCAGGGATCCCTGTGCTCATTCACATAGCTAGGGACAACAGGATTTCATCTCCAGGAAACTCAGTAGTATACTTTTGTGACTTCTCTCTTTAAGCACCAAAGCATACTTTCAGGGAAAAACAAAAAAGAGATTAAAAATGTAAAGAATTCTTTCATGCTGCTTGGAGAGGTGAGGGAAGGTAGCCCACTGAAAGTGACAGAGAA
B8: CF-210: GSE, SEQ ID NO:14, sense; herpesvirus-associated ubiquitin-specific protease gene (nucleic acid, listed as Homo sapiens)
sense: GCATTACAAAGAGTGTTCTATGAATTACAGCATAGTGATAAACCTGTAGGAACAAAAAAGTTAACAAAGTCATTTGGGTGGGAAACTTTAGATAGCTTCATGCAACATGATGTT
B9: CF-531: GSE, SEQ ID NO:47, antisense; cell adhesion molecule L1 gene (nucleic acid, listed as Homo sapiens)
antisense: CTGGGTCCCCAAGGAGGGCCAGTGCAACTTCAGGTTCCATATCTTGTTCAAAGCCTTGGGAGAAGAGAAGGGTGGGGCTTCCCTTTCGC
modifications: chemistry not fully specified
notes: cell adhesion molecule L1 gene
B10: CF-004: GSE, SEQ ID NO:7, sense; human 2-oxoglutarate dehydrogenase gene (nucleic acid, listed as Homo sapiens)
sense: GCGCAAAGCACGCGACATGGTGGGGCAGGTGGCCATCACAAGGATTGAGCAGCTGTCGCCATTCCCCTTTGACCTCCTGCTGAAGGAGGTGCAGAAGTACCCCAA
B11: CF-529: GSE, SEQ ID NO:45, antisense; importin beta subunit gene (nucleic acid, listed as Homo sapiens)
antisense: GGAGTGTGCACGGATGCTGAATGTTTGGGAATGAGAGGATGAGTGAGTGAGGCTTGAAAACACACCACATTGAAAATCCTGCCACAGCAGCAGCCGCAGCCGCCAACAGCAGCGCTGTTAGTGAGCTAAGTAAGC
B12: CF-302: GSE, SEQ ID NO:16, antisense; human CD44 gene (nucleic acid, listed as Homo sapiens)
antisense: GATCCCTGGGCGCGGGGCAGGGGCCGGCGGAGGACGGGACGAGGATGGCGGACCGAACCTGGCAGAGGCTGGG
B13: CF-204: GSE, SEQ ID NO:9, antisense; human calnexin gene (nucleic acid, listed as Homo sapiens)
antisense: GGTTGTCAATCACAGGTCGCCAGGAGACACCACATCCAGGAGCTGACTCACATCTAGGGTTGGCAATCTGAGGAGCCTCCCATTCTCCATCCATGTCTTCATCCCAA
B14: CF-311: GSE, SEQ ID NO:12, antisense; human protein tyrosine phosphatase gene (nucleic acid, listed as Homo sapiens)
antisense: GGGGGCTCTGTTTGGTGGTCTCTCTAGCTGCACTGGTCTATCAAGCTGTTGGCTGGTCTCTCTCTCTGGCTGGGGATC

Test system: HIV-1IIIB
Assay: Selection of GSEs from HeLa cell library using productive infection of CEM-ss cells
Type: cell-based
Procedure: Additionally, a normalized RFE library made from HeLa cells was transferred into CEM-ss cells and the neo resistant population was infected with TCID50 of 3000/10^6 cells of HIV-1IIIB. This RFE library was represented by 50×10^6 independent recombinant clones. Four and seven days after infection, a purified anti-CD4 monoclonal antibody, L77 (available from Becton Dickinson), was added at 5 Φg/mL to prevent syncytia formation. Syncytia formation is thought to be prevented by blocking the interaction between gp120 expressed on the surface of an infected cell and CD4 on the surface of an uninfected cell. […] At 10-12 days after infection, CD4^+, p24^− cell population representing uninfected cells were sorted. Genomic DNA from the CD4^+, p24^− cells was purified and used for PCR amplification of inserts with the vector-derived primers. The amplified mixture was digested with EcoRI and BamHI and cloned back into the retroviral vector. The selection was repeated for additional rounds.
The selection of GSEs from HeLa cell library using productive infection of CEM-ss cells isolated […] additional nucleic acid molecules which have substantial sequence identity with other cellular genes.
The selection of GSEs from a HeLa cell library using productive infection of CEM-ss cells isolated 21 additional nucleic acid molecules which have substantial sequence identity with other cellular genes. […] The complement of SEQ ID NO:25 is represented by SEQ ID NO:26. […] The complement of SEQ ID NO:27 is represented by SEQ ID NO:28. […] The complement of SEQ ID NO:29 is represented by SEQ ID NO:30. […] The complement of SEQ ID NO:31 is represented by SEQ ID NO:32. […] The complement of SEQ ID NO:33 is represented by SEQ ID NO:34. […] The complement of SEQ ID NO:35 is represented by SEQ ID NO:36. […] The complement of SEQ ID NO:37 is represented by SEQ ID NO:38. […] The complement of SEQ ID NO:39 is represented by SEQ ID NO:40. […] The complement of SEQ ID NO:41 is represented by SEQ ID NO:42. […] The complement of SEQ ID NO:43 is represented by SEQ ID NO:44. […] The complement of SEQ ID NO:45 is represented by SEQ ID NO:46. […] The complement of SEQ ID NO:47 is represented by SEQ ID NO:48. […] The complement of SEQ ID NO:49 is represented by SEQ ID NO:50. […] The complement of SEQ ID NO:51 is represented by SEQ ID NO:52. […] The complement of SEQ ID NO:53 is represented by SEQ ID NO:54. […] The complement of SEQ ID NO:55 is represented by SEQ ID NO:56. […] The complement of SEQ ID NO:57 is represented by SEQ ID NO:58. […] The complement of SEQ ID NO:59 is represented by SEQ ID NO:60. […] The complement of SEQ ID NO:61 is represented by SEQ ID NO:62. […] The complement of SEQ ID NO:77 is represented by SEQ ID NO:78. […] The complement of SEQ ID NO:87 is represented by SEQ ID NO:88. […] The complement of SEQ ID NO:99 is represented by SEQ ID NO:100. […] The complement of SEQ ID NO:101 is represented by SEQ ID NO:102. […] The complement of SEQ ID NO:103 is represented by SEQ ID NO:104. […] The complement of SEQ ID NO:105 is represented by SEQ ID NO: 106. […] The complement of SEQ ID NO:107 is represented by SEQ ID NO:108. […] The complement of SEQ ID NO:109 is represented by SEQ ID NO:110. […] The complement of SEQ ID NO:111 is represented by SEQ ID NO:112. […] The complement of SEQ ID NO:113 is represented by SEQ ID NO:114. […] The complement of SEQ ID NO:115 is represented by SEQ ID NO:116. […] The complement of SEQ ID NO:117 is represented by SEQ ID NO:118.

Question: How did the “HIV-suppressive activity of the GSE and active orientation” value (“HIV-suppressive activity” for short) turn out when “CF-321: GSE, SEQ ID NO:29, sense; rat guanine nucleotide releasing protein gene (sense AGTTCCTTTTACTTTTTAATCTTTCCTTAAAGCACGCCTGTGTTGGGCTAACGA; listed as Homo sapiens)” was run?
Answer: interferes with HIV replication in the sense orientation

Question: How did the “HIV-suppressive activity” value turn out when “CF-332: GSE, SEQ ID NO:33, antisense; lymphocyte-specific protein 1 gene (antisense AACACCCATAGTAGGCCTAAAAGCAGCCACCAATTAAGAAAGC; listed as Homo sapiens)” was run?
Answer: interferes with HIV replication as an antisense molecule

Question: How did the “HIV-suppressive activity” value turn out when “CF-528: GSE, SEQ ID NO:43, sense; GTP binding protein gene (sense AGTGCTTTAACGATGTCACAGCTATCATTTACGTCGCAGCCTGCAGTAGCTACAACATG; chemistry not fully specified; listed as Homo sapiens)” was run?
Answer: interferes with HIV infection in the sense orientation

Question: With “CF-537: GSE, SEQ ID NO:25, sense; human bone morphogenic protein-1 gene (sense GGTCCACCATGGCCCTGCTGCACTCCGGCCGCGTCCTCCCCGGGATCGCCGCCGCCT; chemistry not fully specified; listed as Homo sapiens)” as the molecule, how does the “HIV-suppressive activity” value read?
Answer: interferes with the HIV life cycles in the sense orientation

Question: Which “HIV-suppressive activity” value does the source give for B1 here?
Answer: suppresses HIV infection as an antisense molecule

Question: For B2, which “HIV-suppressive activity” value is on record?
Answer: suppresses HIV infection as a sense molecule

Question: With B3 as the molecule, how does the “HIV-suppressive activity” value read?
Answer: suppresses HIV infection as a sense molecule

Question: Which “HIV-suppressive activity” value does the source give for B4 here?
Answer: suppresses HIV infection as an antisense molecule

Question: With B5 as the molecule, how does the “HIV-suppressive activity” value read?
Answer: suppresses HIV infection as a sense molecule

Question: For B6, which “HIV-suppressive activity” value is on record?
Answer: interferes with HIV replication as an antisense molecule

Question: For B7, which “HIV-suppressive activity” value is on record?
Answer: selected in CEM-ss cells

Question: How did the “HIV-suppressive activity” value turn out when B8 was run?
Answer: suppresses HIV infection as a sense molecule

Question: With B9 as the molecule, how does the “HIV-suppressive activity” value read?
Answer: interferes with HIV replication as an antisense molecule

Question: How did the “HIV-suppressive activity” value turn out when B10 was run?
Answer: suppresses HIV infection as a sense molecule

Question: With B11 as the molecule, how does the “HIV-suppressive activity” value read?
Answer: interferes with HIV replication as an antisense molecule

Question: For B12, which “HIV-suppressive activity” value is on record?
Answer: suppresses HIV infection as an antisense molecule

Question: For B13, which “HIV-suppressive activity” value is on record?
Answer: suppresses HIV infection as an antisense molecule

Question: How did the “HIV-suppressive activity” value turn out when B14 was run?
Answer: suppresses HIV infection as an antisense molecule
